Results on four molecules are retold here after US20080096811A1, “[…] VPAC2 RECEPTOR PEPTIDE AGONISTS” (Eli Lilly and Company, published 2008).

Read-outs that look alike come from different tables or passages of the source. Where a SMILES comes first, the peptide text is derived from it. Where no end group is shown, it is not given here. The star is where a group is joined. Hexanoyl = CCCCCC(=O)*

One may read the EC50 as the concentration needed to bring the measured effect to its halfway point. Low values mean greater potency, high ones weaker potency. Usually IC50 stands for the concentration that inhibits the measured activity by half.

Series [1] addresses T1, human VPAC1 (Homo sapiens, UniProt P32241).
T1 sequence (P32241 31-457): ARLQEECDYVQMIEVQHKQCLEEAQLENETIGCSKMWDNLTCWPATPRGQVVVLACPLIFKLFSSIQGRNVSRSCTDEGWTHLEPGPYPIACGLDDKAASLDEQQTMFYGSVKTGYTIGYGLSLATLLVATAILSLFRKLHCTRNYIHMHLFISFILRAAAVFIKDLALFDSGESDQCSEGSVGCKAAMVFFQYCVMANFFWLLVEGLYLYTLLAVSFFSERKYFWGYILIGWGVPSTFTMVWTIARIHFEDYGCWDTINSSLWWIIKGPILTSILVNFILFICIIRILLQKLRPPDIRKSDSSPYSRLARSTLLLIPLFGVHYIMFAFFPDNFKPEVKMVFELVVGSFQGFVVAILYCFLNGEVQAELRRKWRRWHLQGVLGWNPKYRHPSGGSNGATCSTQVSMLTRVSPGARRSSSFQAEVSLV
In words: DiscoveRx cAMP in vitro potency, human VPAC1. The format is cell-based. More on the design: expressed in transfected cells; host or cells: CHO-PO, transient transfection (Lipofectamine). How it is done:
(§1) Also, the cells are washed twice. The cells are incubated in assay buffer plus IBMX for 15 minutes at room temperature. […] The stimuli are present for 30 minutes. Then, the assay buffer is gently removed. […] At day 3, the assay described above for the VPAC2 receptor cell line is performed.

For series [2], the target named is T2, human PAC1 (Homo sapiens, UniProt P41586). The series can be described thus: cell-based. As to the method: as §1
T2 sequence (P41586 21-468): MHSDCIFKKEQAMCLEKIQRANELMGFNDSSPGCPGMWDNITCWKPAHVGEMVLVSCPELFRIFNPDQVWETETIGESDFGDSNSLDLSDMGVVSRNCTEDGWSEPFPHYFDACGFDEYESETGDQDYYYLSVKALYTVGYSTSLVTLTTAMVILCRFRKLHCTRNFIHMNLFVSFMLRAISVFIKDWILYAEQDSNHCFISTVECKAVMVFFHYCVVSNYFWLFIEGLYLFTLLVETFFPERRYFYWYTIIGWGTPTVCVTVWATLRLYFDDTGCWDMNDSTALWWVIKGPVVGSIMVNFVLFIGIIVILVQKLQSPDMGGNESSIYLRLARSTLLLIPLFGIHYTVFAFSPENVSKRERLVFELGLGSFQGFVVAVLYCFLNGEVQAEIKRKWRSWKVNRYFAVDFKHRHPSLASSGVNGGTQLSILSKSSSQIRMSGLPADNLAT
The target in series [3] is T2, human PAC1. In words: biochemical.
For series [4] the following is noted: rat serum, 72 hours.
Description: The rat serum is stored at 4° C. until use and is used within two weeks.
On Day 0, prepare two 100 μL aliquots of 10 μM peptide in rat serum by adding 10 μL peptide stock to 90 μL rat serum for each aliquot. Add 250 kIU aprotinin/mL to one of these aliquots. Store the aliquot with aprotinin at 4° C. Store the aliquot without aprotinin at 37° C. Allow the aliquots to incubate for 18 hours.
On Day 1, after incubation of the aliquots prepared on day 0 for 18 hours, prepare an incubation buffer containing PBS+1.3 mM CaCl2, 1.2 mM MgCl2, 2 mM glucose, and 0.25 mM IBMX. Prepare a plate with 11 serial 5× dilutions of peptide for the 4° C. and 37° C. aliquot for each peptide studied. […] Wash the plate(s) with cells twice in incubation buffer. Allow the plates to hold 50 μL incubation media per well for 15 minutes. Transfer 50 μL solution per well to the cells from the plate prepared with 11 serial 3× dilutions of peptide for the 4° C. and 37° C. aliquot for each peptide studied, using the maximal concentrations that are indicated by the primary screen, in duplicate. This step dilutes the peptide concentration by a factor of two. Incubate in room temperature for 30 minutes. Remove the supernatant. Add 40 μL/well of the DiscoveRx antibody/extraction buffer. Incubate on the shaker (300 rpm) for 1 hour. Proceed as normal with the DiscoveRx kit. Include cAMP standards in column 12. […]
In the next series the test system is Normal Wistar rats. The series can be described thus: Intravenous glucose tolerance test (IVGTT). Type of series: in vivo. Particulars: Wistar rat, insulin. How it is done: Intravenous glucose tolerance test (IVGTT): Normal Wistar rats are fasted overnight and are anesthetized prior to the experiment. A blood sampling catheter is inserted into the rats. The compound is given in the jugular vein. Blood samples are taken from the carotid artery. A blood sample is drawn immediately prior to the injection of glucose along with the compound. After the initial blood sample, glucose mixed with compound is injected intravenously (i.v.). A glucose challenge of 0.5 g/kg body weight is given, injecting a total of 1.5 mL vehicle with glucose and agonist per kg body weight. The peptide concentration vary to produce the desired dose in μg/kg. Blood samples are drawn at 2, 4, 6 and 10 minutes after giving glucose. The control group of animals receives the same vehicle along with glucose, but with no compound added. In some instances, a 30 minute post-glucose blood sample is drawn. Aprotinin is added to the blood sample (250 kIU/ml blood). The serum is then analyzed for glucose and insulin using standard methodologies.
The assay uses a formulated and calibrated peptide stock in PBS. Normally, this stock is a prediluted 100 μM stock. However, a more concentrated stock with approximately 1 mg agonist per mL is used. The specific concentration is always known. Variability in the maximal response is mostly due to variability in the vehicle dose.

For series [5], the target named is T1, human VPAC1. The series can be described thus: Filter binding assay, human VPAC1 membranes, 125I-labeled VIP tracer. More on the design: expressed in transfected cells.
Series [6] deals with T3, human VPAC2 (Homo sapiens, UniProt P41587).
T3 construct: expressed in transfected cells
T3 sequence (P41587 24-438): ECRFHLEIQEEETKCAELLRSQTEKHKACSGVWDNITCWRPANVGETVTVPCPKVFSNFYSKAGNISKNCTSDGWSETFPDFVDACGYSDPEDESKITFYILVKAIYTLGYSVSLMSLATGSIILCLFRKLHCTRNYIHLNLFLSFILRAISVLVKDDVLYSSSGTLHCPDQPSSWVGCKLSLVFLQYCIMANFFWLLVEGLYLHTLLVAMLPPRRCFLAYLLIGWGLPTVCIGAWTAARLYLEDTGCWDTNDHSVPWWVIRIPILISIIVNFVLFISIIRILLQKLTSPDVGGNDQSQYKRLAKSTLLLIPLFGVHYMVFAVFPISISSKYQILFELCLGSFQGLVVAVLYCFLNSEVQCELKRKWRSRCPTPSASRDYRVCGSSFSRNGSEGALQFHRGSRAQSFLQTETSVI
The series can be described thus: Filter binding assay, human VPAC2 membranes, 125I-labeled VIP tracer.

In series [7] the target is T3, human VPAC2. In words: Alpha screen cAMP in vitro potency, human VPAC2. The format is cell-based.
Series [8] has as its target T3, human VPAC2. In words: DiscoveRx cAMP in vitro potency, human VPAC2. Type of series: cell-based. As to the method:
as §1

For series [9], the target named is T4, human VPAC2 receptor (human) (UniProt P41587).
T4 sequence: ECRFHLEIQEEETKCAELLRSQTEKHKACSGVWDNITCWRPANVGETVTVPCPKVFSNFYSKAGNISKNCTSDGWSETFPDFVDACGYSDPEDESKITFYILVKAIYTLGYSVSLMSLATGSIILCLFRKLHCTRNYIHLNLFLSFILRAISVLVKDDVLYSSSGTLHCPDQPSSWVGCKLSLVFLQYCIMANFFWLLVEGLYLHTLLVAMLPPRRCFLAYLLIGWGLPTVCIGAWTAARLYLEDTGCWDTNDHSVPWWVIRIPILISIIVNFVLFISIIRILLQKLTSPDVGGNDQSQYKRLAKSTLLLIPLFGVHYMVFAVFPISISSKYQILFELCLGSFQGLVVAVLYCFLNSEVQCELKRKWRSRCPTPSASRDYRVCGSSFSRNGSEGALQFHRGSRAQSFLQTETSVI

In series [10] the target is T5, human PAC1 receptor (human, UniProt P41586).
Target sequence in this assay (P41586 21-468): as the sequence (P41586 21-468) above
Series [11] addresses T6, human VPAC1 receptor (human) (UniProt P32241).
T6 sequence: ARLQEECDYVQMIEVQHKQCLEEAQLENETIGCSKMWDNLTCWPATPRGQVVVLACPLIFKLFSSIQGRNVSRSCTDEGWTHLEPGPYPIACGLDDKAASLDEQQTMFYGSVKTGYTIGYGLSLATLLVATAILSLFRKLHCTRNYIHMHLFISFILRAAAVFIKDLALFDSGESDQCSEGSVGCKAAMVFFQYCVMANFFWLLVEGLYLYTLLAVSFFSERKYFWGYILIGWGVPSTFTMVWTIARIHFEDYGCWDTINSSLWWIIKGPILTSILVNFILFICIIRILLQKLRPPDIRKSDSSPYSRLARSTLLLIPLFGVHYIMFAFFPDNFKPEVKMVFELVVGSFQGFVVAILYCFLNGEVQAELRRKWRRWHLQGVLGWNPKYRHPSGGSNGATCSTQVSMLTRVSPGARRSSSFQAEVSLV

A further series addresses T7, rat VPAC1 receptor (rat, UniProt P30083).
T7 sequence: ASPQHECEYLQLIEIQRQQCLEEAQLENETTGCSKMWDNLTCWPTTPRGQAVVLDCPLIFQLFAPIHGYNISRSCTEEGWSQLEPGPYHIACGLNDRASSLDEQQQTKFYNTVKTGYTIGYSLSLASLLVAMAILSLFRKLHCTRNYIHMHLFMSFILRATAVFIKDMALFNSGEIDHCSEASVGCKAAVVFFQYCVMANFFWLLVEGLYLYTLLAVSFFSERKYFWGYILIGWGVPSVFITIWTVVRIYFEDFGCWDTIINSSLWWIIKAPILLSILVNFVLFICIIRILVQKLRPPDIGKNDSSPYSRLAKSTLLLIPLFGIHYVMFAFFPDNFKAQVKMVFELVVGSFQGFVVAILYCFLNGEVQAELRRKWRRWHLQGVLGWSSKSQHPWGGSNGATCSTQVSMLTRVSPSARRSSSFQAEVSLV
The series can be described thus: cell-based or functional assay.

The next series has as its target T8, rat VPAC2 receptor (rat, UniProt P35000).
T8 sequence: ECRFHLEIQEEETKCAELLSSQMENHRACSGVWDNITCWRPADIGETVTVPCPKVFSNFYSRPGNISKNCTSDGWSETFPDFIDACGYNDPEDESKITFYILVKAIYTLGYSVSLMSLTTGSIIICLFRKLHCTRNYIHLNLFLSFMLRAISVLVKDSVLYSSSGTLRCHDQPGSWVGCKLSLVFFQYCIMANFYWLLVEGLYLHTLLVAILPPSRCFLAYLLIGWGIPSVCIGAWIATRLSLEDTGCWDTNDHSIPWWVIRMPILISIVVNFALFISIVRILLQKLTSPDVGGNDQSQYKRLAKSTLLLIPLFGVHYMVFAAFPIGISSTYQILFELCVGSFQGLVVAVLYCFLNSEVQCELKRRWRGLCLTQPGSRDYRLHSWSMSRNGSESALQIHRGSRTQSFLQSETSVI
The series can be described thus: cell-based or functional assay.

Series [12] concerns the target T5, human PAC1 receptor. The series can be described thus: cell-based or functional assay.

On to `CCCCCC(=O)N[C@@H](Cc1c[nH]cn1)C(=O)N[C@@H](CO)C(=O)N[C@@H](CC(=O)O)C(=O)N[C@@H](C)C(=O)N[C@H](C(=O)N[C@@H](Cc1ccccc1)C(=O)N[C@H](C(=O)N[C@@H](CC(=O)O)C(=O)N[C@@H](CC(N)=O)C(=O)N[C@@H](Cc1ccc(O)cc1)C(=O)N[C@H](C(=O)N[C@@H](CCCNC(=N)N)C(=O)N[C@@H](CC(C)C)C(=O)N[C@@H](CCCNC(=N)N)C(=O)N[C@@H](CCCCN)C(=O)N[C@@H](CCC(N)=O)C(=O)N[C@H](C(=O)N[C@@H](C)C(=O)N[C@@H](C)C(=O)N[C@@H](CCCCN)C(=O)N[C@@H](CCCCN)C(=O)N[C@@H](Cc1ccc(O)cc1)C(=O)N[C@@H](CC(C)C)C(=O)N[C@@H](CCC(N)=O)C(=O)N[C@@H](CO)C(=O)N[C@H](C(=O)N[C@@H](CCCCN)C(=O)N[C@@H](CC(N)=O)C(=O)N[C@@H](CO)C(=O)N[C@@H](CCCNC(=N)N)C(=O)N[C@H](C(=O)N[C@@H](CO)C(=O)N1CCC[C@H]1C(=O)N1CCC[C@H]1C(=O)N1CCC[C@H]1C(N)=O)[C@@H](C)O)[C@@H](C)CC)C(C)C)[C@@H](C)O)[C@@H](C)O)C(C)C` [Agonist P30] (Hexanoyl-HSDAVFTDNYTRLRKQVAAKKYLQSIKNSRTSPPP-NH2), for which the EC50 was found to be 6.45 nM at human VPAC1 [1], 27 nM at human PAC1 [2], 0.08 nM at human VPAC2 [7] and 0.09 nM on human VPAC2 [8]. Moreover, the IC50 at human PAC1 [3] was 214 nM; on human VPAC1 [5] it was 33.8 nM; at human VPAC2 [6], 0.22 nM. In series [4], the “Rat Serum Stability (Estimated purity in % after 72 hours)” value is listed as 1.0%. Further, in the series on Normal Wistar rats (dose 0.1 μg/kg), the “% increase AUC: Dose = 0.1 μg/kg” value is 67%. Further, the “% increase AUC: Dose = 0.5 μg/kg” value with Normal Wistar rats (dose 0.5 μg/kg) is recorded as 241%. Also, in the series on Normal Wistar rats (dose 10 μg/kg), the “% increase AUC: Dose = 10 μg/kg” value was found to be 378%.

B1: P30 (peptide)
peptide: Hexanoyl-HSDAVFTDNYTRLRKQVAAKKYLQSIKNSRTSPPP-NH2
SMILES: CCCCCC(=O)N[C@@H](Cc1c[nH]cn1)C(=O)N[C@@H](CO)C(=O)N[C@@H](CC(=O)O)C(=O)N[C@@H](C)C(=O)N[C@H](C(=O)N[C@@H](Cc1ccccc1)C(=O)N[C@H](C(=O)N[C@@H](CC(=O)O)C(=O)N[C@@H](CC(N)=O)C(=O)N[C@@H](Cc1ccc(O)cc1)C(=O)N[C@H](C(=O)N[C@@H](CCCNC(=N)N)C(=O)N[C@@H](CC(C)C)C(=O)N[C@@H](CCCNC(=N)N)C(=O)N[C@@H](CCCCN)C(=O)N[C@@H](CCC(N)=O)C(=O)N[C@H](C(=O)N[C@@H](C)C(=O)N[C@@H](C)C(=O)N[C@@H](CCCCN)C(=O)N[C@@H](CCCCN)C(=O)N[C@@H](Cc1ccc(O)cc1)C(=O)N[C@@H](CC(C)C)C(=O)N[C@@H](CCC(N)=O)C(=O)N[C@@H](CO)C(=O)N[C@H](C(=O)N[C@@H](CCCCN)C(=O)N[C@@H](CC(N)=O)C(=O)N[C@@H](CO)C(=O)N[C@@H](CCCNC(=N)N)C(=O)N[C@H](C(=O)N[C@@H](CO)C(=O)N1CCC[C@H]1C(=O)N1CCC[C@H]1C(=O)N1CCC[C@H]1C(N)=O)[C@@H](C)O)[C@@H](C)CC)C(C)C)[C@@H](C)O)[C@@H](C)O)C(C)C
As for B1, the EC50 (nM) for cAMP generation, Alpha Screen in series [9] came out at 0.08 nM. Also, the EC50 (nM) for cAMP generation, DiscoveRx was found to be 0.09 nM in [9], 27 nM with human PAC1 receptor [10] and 6.45 nM in [11]. Also, the “EC50 for cAMP generation, DiscoveRx” value with rat VPAC1 receptor turned out to be 0.62 nM.
Regarding HSDAVFTDNYTRLRKQVAAKKYLQSIKNSRTSPPP-NH2 [P5], in [9], the EC50 (nM) for cAMP generation, Alpha Screen was 1.5 nM. Further, the EC50 (nM) for cAMP generation, DiscoveRx in [9] turned out to be 1.21 nM; in the series with human PAC1 receptor [10] it was 30 nM; in [11], 1.1 nM. Further, the “EC50 for cAMP generation, DiscoveRx” value with rat VPAC2 receptor worked out at 2.23 nM; with rat VPAC1 receptor, 0.96 nM.
In turn, Ac-HSDAVFTDNYTRLRKQVAAKKYLQSIKNSRTSPPP-NH2 [P32] showed an EC50 (nM) for cAMP generation, Alpha Screen in series [9] of 0.32 nM. Further, the EC50 (nM) for cAMP generation, DiscoveRx worked out at 0.65 nM in series [9], 8.24 nM in series [11] and 125 nM with human PAC1 receptor [12]. Besides, the “EC50 for cAMP generation, DiscoveRx” value with rat VPAC1 receptor was determined as 0.73 nM.
